Assay [1] addresses AAA domain of mBcs1L (ΔNmBcs1L, residues 151-420) (mouse) (UniProt Q9CZP5). As to the kind of experiment: native gel or EMSA; BN-PAGE of ΔNmBcs1L with AMP-PNP or ATPγS.
The target of assay [2] is T1, mouse Bcs1L (mBcs1L), wild type, hexahistidine-tagged (mouse, UniProt Q9CZP5 1-418).
T1 sequence (looked up): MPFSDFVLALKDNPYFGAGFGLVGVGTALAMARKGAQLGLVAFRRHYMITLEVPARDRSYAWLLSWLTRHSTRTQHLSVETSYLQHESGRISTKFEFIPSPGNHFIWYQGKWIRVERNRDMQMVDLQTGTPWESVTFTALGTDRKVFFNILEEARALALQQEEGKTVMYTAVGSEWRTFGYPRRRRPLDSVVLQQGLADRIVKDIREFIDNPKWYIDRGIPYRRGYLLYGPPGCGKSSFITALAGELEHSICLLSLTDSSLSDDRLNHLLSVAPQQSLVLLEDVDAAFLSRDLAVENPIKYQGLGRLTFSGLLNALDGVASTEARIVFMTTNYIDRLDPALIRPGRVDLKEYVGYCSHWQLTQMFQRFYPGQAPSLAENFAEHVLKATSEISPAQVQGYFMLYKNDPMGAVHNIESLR
As to the kind of experiment: cell-based or functional assay.

Turning to “AAA domain of mBcs1L (ΔNmBcs1L, residues 151-420) (from UniProt Q9CZP5 151-418) (domain or fragment)”, the stoichiometry N in assay [1] was 7.

B1: extrinsic domain of the Rieske iron-sulfur protein (ISP-ED), bovine (domain or fragment, UniProt P13272 146-274, looked up)
chain: VLAMSKIEIKLSDIPEGKNMAFKWRGKPLFVRHRTKKEIDQEAAVEVSQLRDPQHDLERVKKPEWVILIGVCTHLGCVPIANAGDFGGYYCPCHGSHYDASGRIRKGPAPLNLEVPSYEFTSDDMVIVG
Turning to B1, in assay [2], the “ATPase activity of mBcs1L (malachite green, 37 °C, 15 min) at different ISP-ED:mBcs1L heptamer molar ratios; maximal stimulation at a ratio of 3-4, no further change at higher ratios” value was around 50 % stimulation.

Source of the values: paper PMC11143374, “Conformations of Bcs1L undergoing ATP hydrolysis suggest a concerted translocation mechanism for folded iron-sulfur protein substrate” (Nature Communications, 2024).
